# In publication doi:10.1101/2024.02.28.582571:
# Molecular target: microtubules assembled from purified bovine brain tubulin (bovine) (UniProt Q6B856)
# Experiment: optical trap rupture force assay; kinetochores held on polystyrene beads through α-penta-His antibody; dynamic microtubules grown from coverslip-anchored GMPCPP seeds with bovine brain tubulin in BRB80, 1 mM GTP; 23 °C; force ramp 0.25 pN/s
# Sequence of UniProt Q6B856 (Q6B856 whole entry, looked up): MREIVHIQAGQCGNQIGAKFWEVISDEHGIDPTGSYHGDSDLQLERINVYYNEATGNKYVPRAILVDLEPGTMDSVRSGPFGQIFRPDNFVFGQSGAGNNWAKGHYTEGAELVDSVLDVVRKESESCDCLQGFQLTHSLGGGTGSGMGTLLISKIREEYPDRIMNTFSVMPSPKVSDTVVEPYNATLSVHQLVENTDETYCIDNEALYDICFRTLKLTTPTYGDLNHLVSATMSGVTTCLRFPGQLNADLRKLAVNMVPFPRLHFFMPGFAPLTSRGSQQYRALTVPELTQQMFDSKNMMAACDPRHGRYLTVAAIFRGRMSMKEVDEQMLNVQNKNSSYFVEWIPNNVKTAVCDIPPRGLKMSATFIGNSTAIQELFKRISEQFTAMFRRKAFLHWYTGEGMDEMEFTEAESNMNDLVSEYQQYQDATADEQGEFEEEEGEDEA
row,Substance,median rupture force
1,native kinetochores purified from Kluyveromyces marxianus via Dsn1-6His-3M3DK (from UniProt A0ABX6F0Z3 1-547) (complex),7.5 pN
2,native kinetochores purified from Saccharomyces cerevisiae via Dsn1-6His-3M3DK (from UniProt P40568 1-576) (complex),7.2 pN
